According to PMC9687312:

What was measured:
[1] = target: DC-SIGN Biot-ECD (biotinylated extracellular domain of DC-SIGN) (UniProt Q9NNX6); experiment: SPR
[2] = target: MGL Biot-ECD (biotinylated extracellular domain of MGL) (UniProt Q8IUN9); experiment: SPR
Chain of UniProt Q8IUN9 (Q8IUN9 61-316): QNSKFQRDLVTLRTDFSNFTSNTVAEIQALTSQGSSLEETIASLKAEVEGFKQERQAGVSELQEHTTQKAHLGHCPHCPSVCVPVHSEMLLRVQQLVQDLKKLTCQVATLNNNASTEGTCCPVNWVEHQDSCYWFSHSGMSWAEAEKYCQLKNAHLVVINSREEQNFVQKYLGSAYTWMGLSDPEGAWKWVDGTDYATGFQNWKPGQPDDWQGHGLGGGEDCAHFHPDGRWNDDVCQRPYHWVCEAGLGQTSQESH

Chain of UniProt Q9NNX6 (Q9NNX6 59-404): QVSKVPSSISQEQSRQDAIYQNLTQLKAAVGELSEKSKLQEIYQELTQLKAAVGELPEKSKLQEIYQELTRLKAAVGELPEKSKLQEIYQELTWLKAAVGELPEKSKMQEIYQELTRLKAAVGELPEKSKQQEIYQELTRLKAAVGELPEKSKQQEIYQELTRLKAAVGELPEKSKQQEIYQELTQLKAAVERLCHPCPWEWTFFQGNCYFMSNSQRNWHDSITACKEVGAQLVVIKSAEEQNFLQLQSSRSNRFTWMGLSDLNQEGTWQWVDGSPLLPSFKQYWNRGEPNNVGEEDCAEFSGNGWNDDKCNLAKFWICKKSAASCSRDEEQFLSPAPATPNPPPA

Spike Receptor Binding Domain of SARS-CoV-2 fused to the SpyCatcher (RBD-SC) (from UniProt P0DTC2 320-554)
Kd [1]: 601 nM
Kd [2]: 982 nM
